The values below come from PMC1904107.

This test has as its target caldesmon(302–564) (UniProt Q05682). As to the kind of experiment: fluorescence cross-correlation spectroscopy.

One may read the Kd as the concentration at which binding is half-saturated. A lower Kd goes with tighter binding.

“CaM(1–149) (from UniProt P0DP23 1-149) (natural protein)”: the Kd came to 500 nM.
